Reference: PMC9534812, “Hetero-pentamerization determines mobility and conductance of Glycine receptor α3 splice variants” (Cellular and Molecular Life Sciences, 2022)

What was measured:
[1] = biological target: the molecule itself; test: molecular brightness from raster image correlation spectroscopy (RICS); live HEK293 cells, confocal, 37 °C, bottom membrane; clusters masked out by intensity thresholding; brightness of eGFP compared with eGFP5 and Lyn-eGFP references
[2] = biological target: GlyR-α3K-mCherry (glycine receptor α3 subunit, short splice variant K, N-terminally tagged with mCherry) (mouse); test: subunit counting by stepwise photobleaching (TIRF microscopy); fixed HEK293 cells with low copy number expression (50 ng GlyR-α3L-eGFP, 0-500 ng GlyR-α3K-mCherry); eGFP bleaching steps per diffraction-limited spot, step histogram fitted with binomial models; room temperature

B1: GlyR-α3L-eGFP (glycine receptor α3 subunit, long splice variant L, N-terminally tagged with eGFP) (receptor, mouse, UniProt Q91XP5 34-464, looked up)
chain: ARSRSAPMSPSDFLDKLMGRTSGYDARIRPNFKGPPVNVTCNIFINSFGSIAETTMDYRVNIFLRQKWNDPRLAYSEYPDDSLDLDPSMLDSIWKPDLFFANEKGANFHEVTTDNKLLRIFKNGNVLYSIRLTLTLSCPMDLKNFPMDVQTCIMQLESFGYTMNDLIFEWQDEAPVQVAEGLTLPQFLLKEEKDLRYCTKHYNTGKFTCIEVRFHLERQMGYYLIQMYIPSLLIVILSWVSFWINMDAAPARVALGITTVLTMTTQSSGSRASLPKVSYVKAIDIWMAVCLLFVFSALLEYAAVNFVSRQHKELLRFRRKRKNKTEAFALEKFYRFSDTDDEVRESRFSFTAYGMGPCLQAKDGVVPKGPNHAVQVMPKSPDEMRKVFIDRAKKIDTISRACFPLAFLIFNIFYWVIYKILRHEDIHQQQD
notes: Glycine receptor subunit alpha-3, mouse, splice variant L (464 residues); The receptor assembles as a pentamer; the molecule here is the subunit; also called L variant; GlyR-α3L-FP; source: HEK293, transiently transfected (calcium phosphate; truncated CMV promoter), in the membrane of live or fixed cells; not shown: eGFP, N-terminal, kept
[1]
  stoichiometry N: 5
[2]
  heteropentameric fraction (2nd order binomial fit): 23%
  heteropentameric fraction (3rd order binomial fit): 36%
  heteropentameric fraction (4th order binomial fit): 67%
